Assay results from publication PMC9482650, “Quantitative fragmentomics allow affinity mapping of interactomes” (Nature Communications, 2022).
Changes are numbered by the printed parent chain.

T1: MPP2, Q14168
T1 sequence (Q14168 180-250, limits assumed, looked up): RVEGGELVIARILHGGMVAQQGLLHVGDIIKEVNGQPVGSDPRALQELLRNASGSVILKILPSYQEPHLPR

T2: CARD11, Q9BXL7
T2 sequence (Q9BXL7 662-765, limits assumed, looked up): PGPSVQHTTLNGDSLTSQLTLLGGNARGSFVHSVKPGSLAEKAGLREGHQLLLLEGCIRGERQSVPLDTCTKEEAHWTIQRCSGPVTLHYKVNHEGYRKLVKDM

T3: HTRA4, P83105
T3 sequence (P83105 378-476, limits assumed, looked up): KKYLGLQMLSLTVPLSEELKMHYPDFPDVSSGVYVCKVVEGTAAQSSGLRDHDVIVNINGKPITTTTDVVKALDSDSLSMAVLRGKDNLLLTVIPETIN

T4: LIN7B, Q9HAP6
T4 sequence (Q9HAP6 88-185, limits assumed, looked up): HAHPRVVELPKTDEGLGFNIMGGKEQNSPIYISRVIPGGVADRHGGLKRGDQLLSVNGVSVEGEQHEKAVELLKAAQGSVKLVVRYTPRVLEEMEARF

T5: PDZD2_2, O15018
T5 sequence (O15018 329-429, limits assumed, looked up): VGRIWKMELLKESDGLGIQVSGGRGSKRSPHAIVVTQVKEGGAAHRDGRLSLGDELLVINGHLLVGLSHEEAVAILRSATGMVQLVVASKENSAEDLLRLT

T6: LNX2_3, Q8N448
T6 sequence (Q8N448 463-564, limits assumed, looked up): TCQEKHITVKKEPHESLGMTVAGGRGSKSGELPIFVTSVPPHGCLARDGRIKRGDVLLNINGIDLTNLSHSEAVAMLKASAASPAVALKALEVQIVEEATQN

T7: GRIP1_4, Q9Y3R0
T7 sequence (Q9Y3R0 467-571, limits assumed, looked up): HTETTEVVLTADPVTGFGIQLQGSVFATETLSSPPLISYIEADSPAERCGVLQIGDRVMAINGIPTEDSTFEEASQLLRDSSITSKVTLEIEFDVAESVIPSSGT

T8: FRMPD1, Q5SYB0
T8 sequence (Q5SYB0 52-145, limits assumed, looked up): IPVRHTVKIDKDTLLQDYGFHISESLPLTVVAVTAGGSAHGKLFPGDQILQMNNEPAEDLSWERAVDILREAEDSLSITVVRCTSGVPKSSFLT

T9: ARHGAP21, Q5T5U3
T9 sequence (Q5T5U3 45-169, limits assumed, looked up): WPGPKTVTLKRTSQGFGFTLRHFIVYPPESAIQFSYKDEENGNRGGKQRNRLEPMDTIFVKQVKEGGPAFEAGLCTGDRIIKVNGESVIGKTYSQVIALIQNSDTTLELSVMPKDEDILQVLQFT

T10: PDZD7_3, Q9H5P4
T10 sequence (Q9H5P4 857-944, limits assumed, looked up): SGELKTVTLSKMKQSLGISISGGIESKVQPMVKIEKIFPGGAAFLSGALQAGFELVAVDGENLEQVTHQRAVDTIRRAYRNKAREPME

T11: LIN7C, Q9NUP9
T11 sequence (Q9NUP9 88-185, limits assumed, looked up): T4 sequence (Q9HAP6 88-185, limits assumed, looked up) with A2S, D13E, V35I, V40I, Q65H, S79K, R89K, A96S


How the values were obtained:
Test in all cases: holdup assay
Design in all cases: key: below the threshold = too weak to quantify, mostly under pKd 3.1 to 4
Conditions in all cases: plain residues with an end cap or a label only (N-terminal biotin on a linker: ado-ado)
[1] = molecular target: T1, MPP2, Q14168
[2] = molecular target: FRMPD2_1, Q68DX3
FRMPD2_1, Q68DX3, sequence (Q68DX3 770-861): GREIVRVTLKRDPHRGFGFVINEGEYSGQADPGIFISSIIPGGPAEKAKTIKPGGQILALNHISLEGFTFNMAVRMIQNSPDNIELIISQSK

[3] = molecular target: NHERF4_1, Q86UT5-2
NHERF4_1, Q86UT5-2, sequence (Q86UT5 other isoform, or with tags, fused parts or gaps): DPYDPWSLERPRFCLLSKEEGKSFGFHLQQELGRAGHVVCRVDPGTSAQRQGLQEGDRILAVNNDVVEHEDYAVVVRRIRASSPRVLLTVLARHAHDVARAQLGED

[4] = molecular target: T2, CARD11, Q9BXL7
[5] = molecular target: T3, HTRA4, P83105
[6] = molecular target: T4, LIN7B, Q9HAP6
[7] = molecular target: DLG4_2, P78352
DLG4_2, P78352, sequence (P78352 155-259): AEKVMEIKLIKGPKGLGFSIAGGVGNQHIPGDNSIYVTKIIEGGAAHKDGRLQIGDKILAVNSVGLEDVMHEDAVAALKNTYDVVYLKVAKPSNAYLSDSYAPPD

[8] = molecular target: Inadl_8, Q8NI35
Inadl_8, Q8NI35, sequence (Q8NI35 1425-1530): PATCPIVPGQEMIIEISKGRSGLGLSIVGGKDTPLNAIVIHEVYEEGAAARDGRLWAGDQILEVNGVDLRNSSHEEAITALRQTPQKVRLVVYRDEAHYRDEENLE

[9] = molecular target: Inadl_3, Q8NI35
Inadl_3, Q8NI35, sequence (Q8NI35 359-469): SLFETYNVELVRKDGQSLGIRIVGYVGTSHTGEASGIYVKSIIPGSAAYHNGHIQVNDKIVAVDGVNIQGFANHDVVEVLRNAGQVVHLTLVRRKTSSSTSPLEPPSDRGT

[10] = molecular target: T5, PDZD2_2, O15018
[11] = molecular target: GRID2IP_1, A4D2P6
GRID2IP_1, A4D2P6, sequence (A4D2P6 1-87): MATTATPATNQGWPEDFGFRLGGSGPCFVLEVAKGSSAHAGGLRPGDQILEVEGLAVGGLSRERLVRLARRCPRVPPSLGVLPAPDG

[12] = molecular target: T6, LNX2_3, Q8N448
[13] = molecular target: NHERF4_4, Q86UT5
NHERF4_4, Q86UT5, sequence (Q86UT5 464-550): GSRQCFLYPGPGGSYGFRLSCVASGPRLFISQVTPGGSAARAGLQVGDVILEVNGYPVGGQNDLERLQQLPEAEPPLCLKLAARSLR

[14] = molecular target: LNX1_3, Q8TBB1
LNX1_3, Q8TBB1, sequence (Q8TBB1 500-596): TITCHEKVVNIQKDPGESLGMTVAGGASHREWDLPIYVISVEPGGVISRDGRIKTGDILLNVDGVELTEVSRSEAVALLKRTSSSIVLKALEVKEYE

[15] = molecular target: T7, GRIP1_4, Q9Y3R0
[16] = molecular target: Inadl_1, Q8NI35
Inadl_1, Q8NI35, sequence (Q8NI35 113-229): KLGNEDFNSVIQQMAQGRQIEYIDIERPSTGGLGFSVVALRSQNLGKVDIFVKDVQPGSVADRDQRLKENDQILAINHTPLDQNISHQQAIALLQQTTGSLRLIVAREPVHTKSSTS

[17] = molecular target: IL16_4, Q14005
IL16_4, Q14005, sequence (Q14005 1229-1329): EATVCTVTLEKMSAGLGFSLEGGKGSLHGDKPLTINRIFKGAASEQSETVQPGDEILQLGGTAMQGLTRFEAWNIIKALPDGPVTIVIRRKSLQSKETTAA

[18] = molecular target: MAST2, Q6P0Q8
MAST2, Q6P0Q8, sequence (Q6P0Q8 1099-1202): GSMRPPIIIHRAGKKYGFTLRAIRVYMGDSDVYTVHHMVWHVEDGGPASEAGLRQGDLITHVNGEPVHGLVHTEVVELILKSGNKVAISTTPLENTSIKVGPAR

[19] = molecular target: FRMPD2_2, Q68DX3
FRMPD2_2, Q68DX3, sequence (Q68DX3 944-1038): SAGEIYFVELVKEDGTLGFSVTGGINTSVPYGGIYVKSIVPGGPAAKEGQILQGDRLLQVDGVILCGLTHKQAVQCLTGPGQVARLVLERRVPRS

[20] = molecular target: T8, FRMPD1, Q5SYB0
[21] = molecular target: T9, ARHGAP21, Q5T5U3
[22] = molecular target: Inadl_6, Q8NI35
Inadl_6, Q8NI35, sequence (Q8NI35 1058-1167): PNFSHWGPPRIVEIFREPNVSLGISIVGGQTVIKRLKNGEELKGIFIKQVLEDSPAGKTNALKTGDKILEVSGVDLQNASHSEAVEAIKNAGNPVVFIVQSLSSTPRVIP

[23] = molecular target: T10, PDZD7_3, Q9H5P4
[24] = molecular target: Inadl_9, Q8NI35
Inadl_9, Q8NI35, sequence (Q8NI35 1530-1615): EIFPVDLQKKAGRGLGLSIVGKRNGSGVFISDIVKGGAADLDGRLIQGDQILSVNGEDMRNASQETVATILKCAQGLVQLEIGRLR

[25] = molecular target: MAGI2_5, Q86UL8
MAGI2_5, Q86UL8, sequence (Q86UL8 915-1017): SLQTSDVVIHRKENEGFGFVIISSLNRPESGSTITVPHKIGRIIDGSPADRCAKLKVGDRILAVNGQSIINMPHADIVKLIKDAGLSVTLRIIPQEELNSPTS

[26] = molecular target: AHNAK1, Q09666
AHNAK1, Q09666, sequence (Q09666 4-100): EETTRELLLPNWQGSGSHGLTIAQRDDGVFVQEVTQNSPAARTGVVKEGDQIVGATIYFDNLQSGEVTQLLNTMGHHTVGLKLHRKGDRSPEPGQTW

[27] = molecular target: T11, LIN7C, Q9NUP9

Binder	pKd [1]	pKd [2]	pKd [3]	pKd [4]	pKd [5]	pKd [6]	pKd [7]	pKd [8]	pKd [9]	pKd [10]	pKd [11]	pKd [12]	pKd [13]	pKd [14]	pKd [15]	pKd [16]	pKd [17]	pKd [18]	pKd [19]	pKd [20]	also measured
HLSTRQGTCV [ATRNL1, Q5VV63]	below the threshold	4.1	below the threshold	below the threshold	4.33	below the threshold	4.43	4.25	below the threshold	4.99	below the threshold	below the threshold	3.94	below the threshold	below the threshold	below the threshold	below the threshold	4.94	below the threshold	below the threshold	pKd [21]: below the threshold; pKd [22]: below the threshold; pKd [23]: 4.2; pKd [24]: 4.1; pKd [25]: 4.04; pKd [26]: below the threshold; pKd [27]: below the threshold
HYPASPDSWV [CTNND2, Q9UQB3]	below the threshold	below the threshold	below the threshold	below the threshold	4.06	below the threshold	4.72	4.12	below the threshold	5.99	below the threshold	below the threshold	below the threshold	below the threshold	below the threshold	below the threshold	3.67	4.17	4.54	below the threshold	pKd [21]: below the threshold; pKd [22]: 4.37; pKd [23]: 4.3; pKd [24]: 3.9; pKd [25]: below the threshold; pKd [26]: below the threshold; pKd [27]: below the threshold
VCMGDHWFDV [PRKN, O60260]	below the threshold	below the threshold	below the threshold	below the threshold	3.98	below the threshold	below the threshold	3.66	4.9	4.57	below the threshold	below the threshold	4.3	4.07	below the threshold	below the threshold	below the threshold	4.85	below the threshold	below the threshold	pKd [21]: 4.08; pKd [22]: 3.7; pKd [23]: below the threshold; pKd [24]: 3.69; pKd [25]: below the threshold; pKd [26]: below the threshold; pKd [27]: below the threshold
QRYPGNQTTC [CCL24, O00175]	below the threshold	below the threshold	below the threshold	below the threshold	below the threshold	3.85	3.64	below the threshold	below the threshold	below the threshold	below the threshold	below the threshold	below the threshold	below the threshold	below the threshold	below the threshold	below the threshold	4.74	below the threshold	below the threshold	pKd [21]: below the threshold; pKd [22]: below the threshold; pKd [23]: below the threshold; pKd [24]: below the threshold; pKd [25]: below the threshold; pKd [26]: below the threshold; pKd [27]: below the threshold
KLQNPNQSVV [TYRP1, P17643]	below the threshold	below the threshold	below the threshold	below the threshold	3.94	below the threshold	4.11	3.97	below the threshold	4.57	below the threshold	below the threshold	below the threshold	below the threshold	below the threshold	below the threshold	below the threshold	4.7	below the threshold	below the threshold	pKd [21]: 3.98; pKd [22]: below the threshold; pKd [23]: 4.22; pKd [24]: below the threshold; pKd [25]: 3.78; pKd [26]: below the threshold; pKd [27]: below the threshold
